A short description of this series: yeast display, Sf9 membrane polyspecificity reagent, FACS + sequencing; frameworks hold sequencing errors. The method in brief:
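Genes from sorted yeast were amplified by colony PCR, read by MiSeq 2 × 250 sequencing and filtered on CDR length. These cells carried a synthetic nanobody library in Saccharomyces cerevisiae BJ5465 and were sorted by FACS into low and high (top ~1%) gates on anti-HA and streptavidin fluorescence. Polyreactivity is labelled according to the gate of origin.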
For “QVQLVESGGGLVQAGGSLRLSCDASGLTFHRYAMGWYRQAPGKERELVAAINYSGGRTYYADSVKGRFTISRDNAKNTFYLQMNSLKPEDTAVYYCAAPRASGYFWGQGTQLTVSS”, the “polyreactivity (PSR sort gate)” value is “high polyreactivity”. Regarding “QVQLVESGGGLVQAGGSLRLSCDASGRIFGSYAMGWYRQAPGKERELVAAITYSGGRTYYADSVKGRFTISRDNAKNTVYLQMNSLKPEDTAVYYCNALGRLTSQYDYWGQGTQVTVSS”, the “polyreactivity (PSR sort gate)” value is “high polyreactivity”. Regarding “QVQLVESGGGLVQAGGSLRLSCDASGRIFRKYAMGWYRQAPGKERELVAGITWRGTSTYYADSVKGRFTISRDNAKNTVYLPMNSLKPEDTAVYYCAAEWKGYYVHDYWGQGTQVTVSS”, the “polyreactivity (PSR sort gate)” value is “high polyreactivity”.

Consider “QVQLVESGGGLVQAGGSLRLSCDASGRIFSYYAMGWYRPAPGKERELVAAITRSGGNTYYADSVKGRFTISRDNAKNTVYLLMNSLKPEDTAVYYCAARLGRPFYGPNRYDYWGQGTQVTVSS”, for which the “polyreactivity (PSR sort gate)” value is on record as “high polyreactivity”. Under “QVQLVESGGGLVQAGGSLRLSCDASGRIFTTYAMGWYRQAPGKERELVARITWSAGRTYYADSVKGRFTISRDNAKNTVYLQMNSLKPEDTAVYYCAADGGISAGANSGYDYWGQGTQVTVSS” stands “high polyreactivity”; under “QVQLVESGGGLVQAGGSLRLSCDASGRIFVYYAMGWYRQAPGKERELVAAINSGGTTKYADSVKGRFTISRDNAKNTVYLQMNSLKPEDTAVYYCAAEPLTPSRDRVPYEYYYWGQGTQVTVSS”, “high polyreactivity”; under “QVQLVESGGGLVQAGGSLRLSCDASGRIFYANAMGWYRQAPGKERELVAGISSGGITNYADSVKGRFTISRDNAKNTVYLQMNSLKPEDTAVYYCAARRWSTGGYGQFDYWGQGTQVTVSS”, “low polyreactivity”.

In the case of “QVQLVESGGGLVQAGGSLRLSCDASGRILTSNAMGWYRQPPGKERELVAAISWSGGSTYYADSVKGRFTISRDNAKNTVYLQMNSLKPEDTAVYYCAAPFTTTFDYWGQGTQVTVSS”, the “polyreactivity (PSR sort gate)” value was “low polyreactivity”. On to “QVQLVESGGGLVQAGGSLRLSCDASGRISGSYVMGWYRQAPRKERELVAGISGRGGSTYYADSVKGRFTISRDNAKNTVDLQMNSLKPEDTAVYYCAVVDRTSKGNSYYWGQGTQVTVSS”, for which the “polyreactivity (PSR sort gate)” value is on record as “high polyreactivity”.

For “QVQLVESGGGLVQAGGSLRLSCDASGRTFGRNAMGWYRQAPGERELGAVISRGGSTYYADSVKGRFTISRDNAKNTVYLQRNSLKPEDTAVYYCNADTVYTRTAPYDYWGQGTQVTVSS”, the “polyreactivity (PSR sort gate)” value is listed as “low polyreactivity”. For “QVQLVESGGGLVQAGGSLRLSCDASGRTFPDYAIGWYIQAPGKESELVAAISGSGGSTYYADSVKGRFTISRDNAKNTVYLQMNSLKPEDTAVYYCAAEAETLLWYWFPSAVDYWGQGTQVTVSS” the value was “high polyreactivity”. With “QVQLVESGGGLVQAGGSLRLSCDASGRTFQYYAMGWYRQAPGKVRELVAGISSCGGSTYYADSVKGRFTISRDNAKNTVDLQMNSLKPEDTAVYYCNKARYFTGQRYDYWGQGTQVTVSS”, the “polyreactivity (PSR sort gate)” value is reported as “high polyreactivity”.

As to “QVQLVESGGGLVQAGGSLRLSCDASGRTFSSNAMGWYRQAHGKERELVAAISFRGGRTFYADSVKGRFTISRDNAKNTVYLQMNSLKPEDTAVYYCNAVPETRTYDYWGQGTQVTVSS”, the “polyreactivity (PSR sort gate)” value was “high polyreactivity”. As for “QVQLVESGGGLVQAGGSLRLSCDASGSIFAPNSMGWYRQAPGKERELVAAITSSGCRTYYADSVKGRFTISRDNAMNTFYLQMNSLKPVDSAVYYWIAGFYVRRDYDYWGQGTQVTVSS”, the “polyreactivity (PSR sort gate)” value is on record as “low polyreactivity”.

As for “QVQLVESGGGLVQAGGSLRLSCDASGSIFILYAMGWYRQAPGKERELVAGITLSTGTTSYADSVKGRFTISRDNAKNTVYLQMNSLKPVDTAVYYCNAVPSQHDEFDYWGQGTQVTVSS”, the “polyreactivity (PSR sort gate)” value is recorded as “low polyreactivity”.

As to “QVQLVESGGGLVQAGGSLRLSCDASGSIFPHNAMGWYRQAPGKERELVAAISVSGGSKYYADSVKGRFTISRDNAKNTVYLQMNSLKPEDTAVYYCAAYAYGGRINGYRTYRYNYWGQGTQVTVSS”, the “polyreactivity (PSR sort gate)” value was “high polyreactivity”. Regarding “QVQLVESGGGLVQAGGSLRLSCDASGSIFPYNAMGWFRQAPGKEWELVAAISKRGGSTYYADSVKGRFTISRDNAKNTVYLQMNSLKPEDSAVYYCAARYPPYRSWYSYDSWGQGTQVTVSS”, the “polyreactivity (PSR sort gate)” value is on record as “low polyreactivity”. Consider “QVQLVESGGGLVQAGGSLRLSCDASGSIFSIYAMGWYRQAPGKERELVAAISSGGSTYYADSVKGRFTISRDNAKNTVYLQMNSLKPEDTAVYYCAADAAYYSGYDYWGQGTQVTVSS”, for which the “polyreactivity (PSR sort gate)” value is on record as “low polyreactivity”. For “QVQLVESGGGLVQAGGSLRLSCDASGSIFTPYAMGWYRQAPGKERELVAAINWNGGRTYYADSVKGRFTISRDNAKNRVYLQMNCLKPEDTAVYYCFLYYWANYPYNYWGQGTQVNVSS” the value was “low polyreactivity”; for “QVQLVESGGGLVQAGGSLRLSCDASGSIFYDNAKGWYRQAPGKERELVATIRGGGNTYYADSVKGRFTISRDNAKNTVYLQMNSLKPEDTAVNYCAKQSDFPVVPLVYGVYGYDYWGQGTQVTVSS”, “low polyreactivity”; for “QVQLVESGGGLVQAGGSLRLSCDASGSIFYGYAMGWYRQAPGKERELVASITGSGGSTSYADSVKGRFTISRDNAKKTVYLQMNSLKPEDTAVYYCNTVLLQLYKLASGFDYWGQGTQVTVSS”, “high polyreactivity”.

Take “QVQLVESGGGLVQAGGSLRLSCDASGSIIGFYAMVWYRQAPGKERELVASISSSGDSTYYADSVKGRFTFSRDIAKNTVYLQMNSLIPEDTAVYYCAAVVYDIYGYEFDYWGQGTQLTVSS”: the “polyreactivity (PSR sort gate)” value is “low polyreactivity”.

“QVQLVESGGGLVQAGGSLRLSCDASGSILPGYAMGWYRQEPGKEMELVAAISYRGTSTYYADSVKGRFTISRDNAKNTFYLQMNSLKPEDTAVYYCAAGGSWFRYPPSMDYWGQGTQVTVSS”: the “polyreactivity (PSR sort gate)” value is recorded as “high polyreactivity”. Under “QVQLVESGGGLVQAGGSLRLSCDASGSTFGTYAMGWYRQAPGKERELVATITYRGGSTNYADSVKGRFTISRDNAKNTVYLQMISLKPEDTAVYYCAADYFSQLAGIFDYWGLGTQVTVSS” stands “low polyreactivity”; under “QVQLVESGGGLVQAGGSLRLSCDASGSTFRSYAMGWYRQAHGKERELVASISGRGGSTYYADSVKGRFTISRDNAKNTVYLQMNSLKPEDTAVYYCAKRYRVSYYPYADPYGYWGQGTQVTVSS”, “low polyreactivity”. Under “QVQLVESGGGLVQAGGSLRLSCDASGSTFSYYAMGWYRQAPGKERDLVAAISSSGVRTYYADSVKGRFTISRDNAKNTVYLQMNSQKPEDTAVYYCAAGSRRGWLYRNRLWADYDYWGQGTQVTVSS” stands “high polyreactivity”; under “QVQLVESGGGLVQAGGSLRLSCDASGSTFVHYAMGWYRQAPGKERQLVAAISSSGDSTYYADSVKGRFTISRDNAKNTVYLKMNSLKPEDTAVYYCAVRSRTPRAYYYWGQGTQVTVSS”, “low polyreactivity”; under “QVQLVESGGGLVQAGGSLRLSCDASGSTRIYAMGWYTQAPGKERELVAAISWTGGRTYYADSVKGRFTISRDNAKYTVYLQMNSLKPEDTAVYYCAAKGSGRDYWGQGTLVTVSS”, “high polyreactivity”. Under “QVQLVESGGGLVQAGGSLRLSCDASGSTSYLYAMGCYRQAPGKARELVAAIPWRSVRTSYADSVKGRFTFSRDNAKNTVYLQMNSLKPEDTAVYYCNAVGYTRGRSTYDYWGQGTQVTVSS” stands “high polyreactivity”.

Take “QVQLVESGGGLVQAGGSLRLSCDASGYTFRRYAMGWYIQAPGKEREMVAAITNSGGSTYYADSVKGRFTISRDNAKNTVYLQMNSLKPEDTAVYYCVALRSAGAYDYWGQGTQVTVSS”: the “polyreactivity (PSR sort gate)” value was “low polyreactivity”.
